In this assay the target is T1, rat hnRNP M4 expressed in P388D1 mouse macrophage cells by transient transfection of hnRNP M4/pBK-CMV (rat, UniProt Q62826 2-690).
T1 construct: also called pBK-CMV/hnRNP M4
T1 sequence: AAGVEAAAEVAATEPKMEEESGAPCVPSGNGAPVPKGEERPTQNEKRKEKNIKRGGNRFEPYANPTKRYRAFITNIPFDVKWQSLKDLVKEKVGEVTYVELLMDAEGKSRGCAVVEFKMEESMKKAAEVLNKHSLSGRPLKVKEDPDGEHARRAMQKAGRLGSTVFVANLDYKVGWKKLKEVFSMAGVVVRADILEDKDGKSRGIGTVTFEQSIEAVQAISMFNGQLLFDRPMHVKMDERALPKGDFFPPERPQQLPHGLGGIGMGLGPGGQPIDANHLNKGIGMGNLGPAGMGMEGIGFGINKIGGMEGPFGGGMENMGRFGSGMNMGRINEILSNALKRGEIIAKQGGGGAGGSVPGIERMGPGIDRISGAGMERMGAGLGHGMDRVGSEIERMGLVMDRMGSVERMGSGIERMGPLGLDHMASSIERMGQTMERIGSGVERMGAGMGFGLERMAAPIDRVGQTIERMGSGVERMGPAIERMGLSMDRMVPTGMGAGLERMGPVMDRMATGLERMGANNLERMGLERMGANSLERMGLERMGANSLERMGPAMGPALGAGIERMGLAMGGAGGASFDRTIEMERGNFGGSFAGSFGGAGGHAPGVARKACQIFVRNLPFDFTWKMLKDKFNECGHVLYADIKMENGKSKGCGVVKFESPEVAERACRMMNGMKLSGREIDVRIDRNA
The experiment in a line: 125I labeled CEA binding/uptake by P388D1 cells 48 h after transient transfection, compared with matching vector. From the text: To begin to elucidate the mechanism underlying the intracellular signaling associated with KC activation and CEA binding, the hnRNP M4 cDNA in the pBK-CMV expression vector was introduced into CEA non-responsive macrophage cell lines. The hnRNP M4 transcription in this system was driven by the CMV promoter. […] An approximately 5 times increase in CEA uptake was observed on transfecting […] of hnRNP M4/pBK-CMV plasmid. This fact implies that hnRNP M4 cDNA can initiate CEA binding in P388D1 […] macrophage cell line and can act as a receptor for CEA. […] At present, the reasons for lack of response by IC21 cells are not known.
Transient transfection of hnRNP M4 plasmid was carried out in P388D1 mouse lymphoid macrophage, IC21 mouse peritoneal and CRL2192 rat alveolar macrophage cell lines. As a positive control were used rat KC. The P388D1 cells were propagated in DMEM medium supplemented with 10% horse serum. The CRL 2192 cells were grown in F-12K medium (Kaighn's modification) supplemented with 15% FBS. The IC21 cells were grown in RPM1 1640 ATCC modified medium supplemented with 10% FBS. All cells were maintained at 37° C. in 5% CO₂ atmosphere. All tissue culture products were obtained from Life Technologies, USA. Cells for transfection were plated at 2-2.5.10⁵ cells per well in six well tissue culture clusters (Nunc products, Germany). […]

B1: carcinoembryonic antigen (CEA) (ligand, UniProt P06731 35-685, looked up)
chain: KLTIESTPFNVAEGKEVLLLVHNLPQHLFGYSWYKGERVDGNRQIIGYVIGTQQATPGPAYSGREIIYPNASLLIQNIIQNDTGFYTLHVIKSDLVNEEATGQFRVYPELPKPSISSNNSKPVEDKDAVAFTCEPETQDATYLWWVNNQSLPVSPRLQLSNGNRTLTLFNVTRNDTASYKCETQNPVSARRSDSVILNVLYGPDAPTISPLNTSYRSGENLNLSCHAASNPPAQYSWFVNGTFQQSTQELFIPNITVNNSGSYTCQAHNSDTGLNRTTVTTITVYAEPPKPFITSNNSNPVEDEDAVALTCEPEIQNTTYLWWVNNQSLPVSPRLQLSNDNRTLTLLSVTRNDVGPYECGIQNELSVDHSDPVILNVLYGPDDPTISPSYTYYRPGVNLSLSCHAASNPPAQYSWLIDGNIQQHTQELFISNITEKNSGLYTCQANNSASGHSRTTVKTITVSAELPKPSISSNNSKPVEDKDAVAFTCEPEAQNTTYLWWVNGQSLPVSPRLQLSNGNRTLTLFNVTRNDARAYVCGIQNSVSANRSDPVTLDVLYGPDTPIISPPDSSYLSGANLNLSCHSASNPSPQYSWRINGIPQQHTQVLFIAKITPNNNGTYACFVSNLATGRNNSIVKSITVSASGTSPGLSA
modifications: 125I label in the phage-lift and cell binding assays; unlabeled soluble CEA in the blot overlay
notes: also called soluble CEA; 125I labeled CEA
For the molecule B1, the “fold increase in CEA uptake (against vector-transfected cells)” value is ~5 times.
